Values joined by “and” are separate entries in the source; they are usually repeats but may differ in a detail not shown here. Equal entries are not always repeated.
Target: the molecule itself
Test: cryo-EM structure

B1: CXCR4EM (human CXCR4 with N119S, hemagglutinin signal peptide, C-terminal monomeric enhanced GFP and FLAG tag) (receptor)
chain: EGISIYTSDNYTEEMGSGDYDSMKEPCFREENANFNKIFLPTIYSIIFLTGIVGNGLVILVMGYQKKLRSMTDKYRLHLSVADLLFVITLPFWAVDAVANWYFGNFLCKAVHVIYTVSLYSSVLILAFISLDRYLAIVHATNSQRPRKLLAEKVVYVGVWIPALLLTIPDFIFANVSEADDRYICDRFYPNDLWVVVFQFQHIMVGLILPGIVILSCYCIIISKLSHSKGHQKRKALKTTVILILAFFACWLPYYIGISIDSFILLEIIKQGCEFENTVHKWISITEALAFFHCCLNPILYAFLGAKFKTSAQHALTSVSRGSSLKILSKGKRGGHSSVSTESESSSFHSS
  stoichiometry N: 3 and 4

From PMC11832422 (Nature Structural & Molecular Biology, 2024)
